Laboratory results from US12410253B2, “Compositions comprising anti-NRP2 antibodies” (aTyr Pharma, Inc., priority 2019, dated 2025).
“Also recorded” adds a separate entry of the source.

Legend:
[1] = test system: mouse NRP2; assay: Epitope mapping: FACS staining of Expi293 cells expressing mouse NRP2 and b1 domain mutants; assay type: binding; conditions: MFI staining, antibody 10 nM, mutations made in isolation
Description: (§1) Human NRP2a (version 2; see Table N1) and mouse NRP2v2 cDNAs were obtained from Origene. […] Human and mouse NRP2, expression vectors, along with expression vectors encoding all 6 mutants were transfected into Expi293 cells at 1 million cells/mL, by standard techniques. Approximately 40 hours post transfection cells were co-stained with aNRP2-10v10, and a species agnostic anti-NRP2 a1 specific binding antibody.

[2] = molecular target: T1, mouse NRP2 (Mus musculus, UniProt O35375); assay: as above; assay type: binding
T1 construct: host or cells: Expi293, transient transfection
T1 sequence (O35375 21-926 isoform O35375-4): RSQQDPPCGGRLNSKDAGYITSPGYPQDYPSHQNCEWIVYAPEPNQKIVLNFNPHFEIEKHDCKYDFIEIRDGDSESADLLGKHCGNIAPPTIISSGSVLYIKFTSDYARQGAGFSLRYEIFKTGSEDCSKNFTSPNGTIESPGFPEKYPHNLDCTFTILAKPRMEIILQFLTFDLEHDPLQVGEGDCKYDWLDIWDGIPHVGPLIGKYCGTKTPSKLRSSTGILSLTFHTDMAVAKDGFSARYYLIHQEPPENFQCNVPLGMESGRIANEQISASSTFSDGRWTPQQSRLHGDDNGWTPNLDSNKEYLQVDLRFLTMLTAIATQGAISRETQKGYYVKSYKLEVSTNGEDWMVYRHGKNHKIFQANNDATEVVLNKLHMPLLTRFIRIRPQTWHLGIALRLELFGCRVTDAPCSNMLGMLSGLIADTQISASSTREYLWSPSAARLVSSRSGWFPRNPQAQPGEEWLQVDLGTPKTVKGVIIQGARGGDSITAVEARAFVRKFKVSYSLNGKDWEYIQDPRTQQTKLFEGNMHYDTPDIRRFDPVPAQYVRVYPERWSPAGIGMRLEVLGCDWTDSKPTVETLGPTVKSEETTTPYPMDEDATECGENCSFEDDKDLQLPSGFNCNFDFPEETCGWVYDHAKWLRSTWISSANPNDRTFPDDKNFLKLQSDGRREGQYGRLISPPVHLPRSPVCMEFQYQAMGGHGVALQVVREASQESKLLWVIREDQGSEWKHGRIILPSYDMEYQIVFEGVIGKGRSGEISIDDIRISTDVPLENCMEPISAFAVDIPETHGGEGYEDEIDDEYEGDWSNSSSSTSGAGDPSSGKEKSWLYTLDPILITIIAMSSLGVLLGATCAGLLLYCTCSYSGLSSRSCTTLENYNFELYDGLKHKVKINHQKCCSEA
Description: as §1

[3] = test system: MDA-MB-231 cells; assay: 3D methylcellulose colony formation assay, MDA-MB-231; assay type: cell-based, human; conditions: antibody 100 nM in combination with Cisplatin (2 doses) or Bevacizumab (100 nM), compared to hIgG4
Excerpt: Other experimental details are essentially the same as described in the previous example.

[4] = test system: A549 cells; assay: A549 NSCLC xenograft in Nu/J mice, combination with 5-FU; assay type: in vivo; conditions: for tumor growth in combination with 5-FU: 12.5 mg/kg IP BIW plus 5-FU 2.5 mg/kg TIW from day 16, significant on day 51 vs control IgG/5-FU
Description: This study aimed to investigate the in vivo anticancer potential of aNRP2-10v10 in combination with fluorouracil (5-FU) in a human xenograft mouse model using A549 cells (NSCLC cancer model).
Treatment Regimen. Twenty (20) Nu/J mice (Jackson Laboratory, female, 6-8 wks old) were used in this study. […] The dosing regimen is shown in Table E7 below; In brief animals received injections of 12.5 mg/kg of aNRP2-10 or IgG control, which were administered to mice intraperitoneally twice a week according to the protocol below (Table E7). Both groups also received 2.5 mg/kg of 5-FU three times a week.
Human A549 cell line was purchased from ATCC.

[5] = test system: neo-lymphangiogenesis of the cornea; assay: Corneal alkali-burn injury model of neovascularization (LYVE-1 staining); assay type: in vivo, mouse; conditions: IP on Day 0, 3, 7 and 10; Day 14; compared to IgG control; p=0.07
Description: Study Design & Treatment Regimen. The study consisted of 40 female C57BL/6 mice separated into four groups. Prior to study, animals were randomized into four groups, 10 mice per group. On Day 0, neovascularization (NV) of the cornea was induced from alkali-burn injury in the eyes of animals under anesthesia. Animals were treated intraperitoneally with control IgG (Group 1), aNRP2-28 (Group 2) and Bevacizumab (Group 3) on post-injury Day 0, 3, 7 and 10. During the in-life phase, animals were monitored with daily clinical observations and weekly body weights. Additionally, ocular assessments of injured eyes were scored and photos taken on post-injury Day 7 and Day 14. All animals were euthanized on Day 14. Injured eyes from all animals were removed and dissected. Whole-mounted corneas were fixed, stained with LYVE-1, and analyzed immunohistochemically to examine the efficacy of Test Articles.

[6] = test system: MDA-MB-231; assay: 3D soft agar colony formation assay, MDA-MB-231; assay type: cell-based, human
Description: Anchorage-independent growth is the ability of transformed cells to grow independently of a solid surface, and is a hallmark of carcinogenesis. The soft agar colony formation assay is a well-established method for characterizing this capability in vitro (J Vis Exp. 2014; (92): 51998). Human triple negative breast cancer (TNBC) cell lines MDA-MB-231 (HTB-26™) and BT549 (HTB122™) were obtained from ATCC and employed in this assay.
MDA-MB-231 was cultured in 1×RPMI media containing 10% FBS and 1% P/S. BT549 was cultured in 1×RPMI media containing 10% FBS, 0.023 U/mL insulin and 1% P/S. Cells were recovered and expanded from frozen stocks for 2-3 passages. The NRP2-high population was sorted out on FACS equipment following cell surface staining by a fluorophore-conjugated anti-NRP2 antibody. […] The chemo drug Cisplatin or 5-FU was added at a final concentration of IC30 or 1/2 IC30, based on a preliminary test that determined their inhibition curves on MDA-MB-231 cells, in combination with the antibodies a-NRP2-10v10 or its isotype control hIgG4 at 100 nM. […] After 6 or 9 days of treatment, the soft agar matrix was dissolved and the formed cell colonies were quantified using CyQuant dye diluted in PBS (provided in the Cell Biolab kit), which produced a fluorescence signal proportional to viable cells.

B1: aNRP2-10v10: humanized, affinity matured anti-NRP2 antibody, target domain b1, VEGF-C blocking; VH SEQ ID NO: 49, VL SEQ ID NO: 50 (antibody, V domains shown)
VH: EVQLVQSGAEVKKPGATVKISCKVSGFNIKDYYVHWVQQAPGKGLEWMGRIDVEDDETKYAPKFQGRVTITADTSTDTAYMELSSLRSEDTAVYYCATPIYGAREAWFAYWGQGTLVTVSS
VL: DIQMTQSPSSLSASVGDRVTITCTASSSVSSSYLHWYQQKPGKAPKLLIYRTSNLASGVPSRFSGSGSGTDFTLTISSLQPEDFATYYCHQYYRSPPTFGGGTKVEIK
modifications: Variable heavy chain region; Light chain variable region
- binding activity to mouse NRP2 with mutations F299Y, K354N, and L416S [1]: restored partial, but incomplete, binding activity
- binding to mouse NRP2 with mutations 1383V, M400A, and 1407V [1]: no improvement in binding
- binding to mouse NRP2 (wild type) [2]: binds specifically to the b1 domain of human NRP2, but not mouse NRP2; also recorded: does not cross react with mouse NRP2
- colony formation by MDA-MB-231 cells, methylcellulose [3]: inhibitory effect; also recorded: significantly enhanced inhibition of colony formation
- tumor growth in combination with 5-FU [4]: enhances activity of the chemotherapeutic drug 5-FU
- tumor growth in combination with 5-FU ([4]; listed as aNRP2-10): performed better than 5-FU with control IgG
- toxicity by clinical observations and body weights ([4]; combination with 5-FU): No obvious increased toxicity
- neo-lymphangiogenesis, % Lyve-1+ area of cornea [5]: clear trend towards reduced sprouting of lymphatic vessels
- colony formation, soft agar, antibody treatment alone (MDA-MB-231) ([6]; aNRP2-10v10 treatment alone): no obvious effect
- colony formation by MDA-MB-231 cells, soft agar ([6]; antibody 100 nM in combination with Cisplatin or 5-FU (IC30 or 1/2 IC30), compared to hIgG4 control, NRP2-high sorted cells): significantly more pronounced; also recorded: significant inhibition of colony formation
